# Earlier results in publication PMC4859893.
# pKd: −log10 of the molar value.
# Biological target: EGFR (Homo sapiens) (UniProt P00533)
substance,measurement,value
EGF (from UniProt P01133),pKd,8.70
